# In patent US20050283857A1:
# pKd: −log10 of the molar value.
# Tests used:
# [1] = target: Cad12 truncated Bt-R1a cadherin expressed in S2 cells (Manduca sexta); assay: 125I-Cry1Ab toxin binding saturation assay on S2 cells; dissociation constant (Kcom)
# [2] = target: Cad11-12 truncated Bt-R1a cadherin expressed in S2 cells (Manduca sexta); assay: as above
# [3] = target: Manduca sexta cadherin Bt-R1a, full length, expressed in Drosophila S2 cells (Manduca sexta); assay: as above
# [4] = target: Cad11-12 truncated Bt-R1a cadherin expressed in S2 cells (Manduca sexta); assay: 125I-Cry1Ab saturation binding on S2 cell suspensions
# [5] = target: Cad12 truncated Bt-R1a cadherin expressed in S2 cells (Manduca sexta); assay: 125I-Cry1Ab toxin binding saturation assay on S2 cells; concentration of receptors
# [6] = target: Cad11-12 truncated Bt-R1a cadherin expressed in S2 cells (Manduca sexta); assay: as above
# [7] = target: Manduca sexta cadherin Bt-R1a, full length, expressed in Drosophila S2 cells (Manduca sexta); assay: as above
# [8] = target: Cad7-12 truncated Bt-R1a cadherin expressed in S2 cells (Manduca sexta); assay: as above
substance,measurement,setting,value
Cry1Ab toxin (ligand),pKd,[1],8.54
same,pKd,[2],8.45
same,pKd,[3],8.45
same,fold higher concentration of binding sites than Cad12,[4],3 fold
same,Bmax (fmoles/mg protein),[5],1410
same,Bmax (fmoles/mg protein),[6],3320
same,Bmax (fmoles/mg protein),[7],625
same,Bmax (fmoles/mg protein),[8],506
